This assay addresses T1, 重组蛋白MDA5 (MDA5抗原蛋白) (Homo sapiens (Human), UniProt Q9BYX4 1-1025).
T1 construct: Recombinant MDA5 from a synthetic gene in pFastBac1 (EcoRI/XbaI); also called MDA5蛋白
T1 sequence: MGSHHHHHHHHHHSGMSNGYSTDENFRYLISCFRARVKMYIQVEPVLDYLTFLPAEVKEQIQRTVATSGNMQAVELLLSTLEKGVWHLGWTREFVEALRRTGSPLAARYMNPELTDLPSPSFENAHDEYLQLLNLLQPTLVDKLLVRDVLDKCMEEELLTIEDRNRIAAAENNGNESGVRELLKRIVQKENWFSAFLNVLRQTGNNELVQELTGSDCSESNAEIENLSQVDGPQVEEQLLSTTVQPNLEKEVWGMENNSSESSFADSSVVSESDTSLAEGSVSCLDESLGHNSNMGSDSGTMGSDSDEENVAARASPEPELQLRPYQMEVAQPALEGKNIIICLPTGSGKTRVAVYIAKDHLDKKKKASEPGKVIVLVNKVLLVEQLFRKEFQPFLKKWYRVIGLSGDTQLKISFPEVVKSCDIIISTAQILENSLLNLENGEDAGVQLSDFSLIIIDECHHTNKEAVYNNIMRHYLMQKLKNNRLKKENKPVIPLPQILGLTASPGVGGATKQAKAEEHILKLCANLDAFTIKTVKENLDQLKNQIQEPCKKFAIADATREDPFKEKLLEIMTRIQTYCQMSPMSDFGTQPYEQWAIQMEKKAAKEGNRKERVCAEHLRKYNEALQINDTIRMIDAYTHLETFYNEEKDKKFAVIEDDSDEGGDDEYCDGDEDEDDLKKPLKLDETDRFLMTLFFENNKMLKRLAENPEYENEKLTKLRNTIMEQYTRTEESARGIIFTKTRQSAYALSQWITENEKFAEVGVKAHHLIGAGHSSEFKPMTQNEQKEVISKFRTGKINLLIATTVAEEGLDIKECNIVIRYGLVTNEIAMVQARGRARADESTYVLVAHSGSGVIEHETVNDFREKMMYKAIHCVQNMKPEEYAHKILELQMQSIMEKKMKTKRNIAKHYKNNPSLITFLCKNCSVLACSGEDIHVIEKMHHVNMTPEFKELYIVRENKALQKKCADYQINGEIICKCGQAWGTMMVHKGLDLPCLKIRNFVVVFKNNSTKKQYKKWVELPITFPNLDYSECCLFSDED
Briefly: ELISA, MDA5 coated 4 ug/mL, antibody dilution series, anti-human IgG-HRP. In general terms: An ELISA detects its analyte on a solid surface through an enzyme-linked reagent.

B1: 76F-MDA5-R2P1-G5抗体 (antibody, human IgG1, kappa, V domains shown)
VH: QVQLVESGGGVVQPGRSLRLSCAASGFTFSSYAMHWVRQAPGKGLEWVAVISYDGSNKYYADSVKGRFTISRDNSKNTLYLQMNSLRAEDTAVYYCARHRRYAFDIWGQGTTVTVSS
VL: QAVLTQPASVSGSPGQSITISCTGTSSDVGGYNYVSWYQQHPGKAPKLMIYDVSKRPSGVSNRFSGSKSGNTASLTISGLQAEDEADYYCSSYVVSYTWVFGGGTKVTVLR
notes: The printed heavy and light chain entries appear to start with a leader peptide
As to B1, the binding result is listed as “binds”.

For the origin of these results see patent publication CN116284371A (SUZHOU FANGKE BIOTECHNOLOGY CO LTD; SUZHOU INST OF SYSTEMS …, dated 2023).
